Measured values: the nanobody polyreactivity screen of Harvey et al. (2022)

Assay: yeast display, Sf9 membrane polyspecificity reagent, FACS + sequencing; frameworks hold sequencing errors
In short: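 Galactose induction of a Saccharomyces cerevisiae BJ5465 synthetic nanobody display library ran 36–48 hours. The cells were then stained for 1 hour at 4 °C with 10% biotinylated, detergent-solubilized Sf9 membrane reagent, pulled down on streptavidin microbeads and FACS-sorted into low and high (top ~1%) gates on expression and reagent-binding fluorescence. Labels for polyreactivity follow the gate of origin.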

Row | Sequence | polyreactivity (PSR sort gate)
1 | QDQLVESGGGLVQAGGSLRLSCAASGLNFVRYAMGWYRQAPGKERELVATITWSGGTYYADSVKGRFTISRDNAKNTVYLQMNSLKPEDTAVSYCAADTPTPGLFYWFYPHRGYWGQGTQVTVSS | low polyreactivity
2 | QDQLVESGGGLVQAGGSLRLSCAASGLTFPYYAMGWYRQAPGKERELVAAITWSGGTTDYADSVKGRFTISRDNAKNTVYLQMNSLKPEDTAVYYCAARFLWKGYYWGQGTQVTVSS | low polyreactivity
3 | QDQLVESGGGLVQAGGSLRLSCAASGLTFQYNAMGWYRQAPRKERELVATISQSGGSTYYADSVKGRFTISRDNAKNTVYLQMNSLKREDTAVYYCAAYRAWTWRIRYDYWGQGTQVTVSS | low polyreactivity
4 | QDQLVESGGGLVQAGGSLRLSCAASGLTIYHYAMGWYRQAPGKERELVADISSGGSTSYADSVKGRFTISRDNAKNTVYLQMNSLKPEDTAVYYCAADYTWERYHRQIFRLDYWGQGTQVTVSS | low polyreactivity
5 | QDQLVESGGGLVQAGGSLRLSCAASGNTLAANAMGWYRQAPGKERELVAAITYSGGSTYYADSVKGRFTISRDNAKNTVYLQMSSLKPEDTSVYYCNAPYVFSAGFDYWGQGTQVTVSS | low polyreactivity
6 | QDQLVESGGGLVQAGGSLRLSCAASGRFFKWYAMGWYRQAPGKEREFVAGISSSGTSTYYADSVKGRFTISRDNAKKTVSLQRNSLKPEDTAVYYCNKLGSTLDFGYWGQGTQVTVSS | high polyreactivity
7 | QDQLVESGGGLVQAGGSLRLSCAASGRIFCSYAMGWYRQAPGKERELVAAISRRGGGTYYADSVKGRFTISRENAKNTVYLQMNSLKPEDTAFYYCAKDWYGRYYYWGQGTQVTVSS | high polyreactivity
8 | QDQLVESGGGLVQAGGSLRLSCAASGRIFGFNAMGWYRQAPGKERELVAAISWRGGSTRYADSVKGRFTISRDNAKNTVYLQMNSLKPEDTAVYYCATPYADPGTVQYAGYNYWGQGTQVTVSS | high polyreactivity
9 | QDQLVESGGGLVQAGGSLRLSCAASGRIFGINAMGWYIPAPGKERELVAAINWSGGSTYYADSVKGRFTISRDNAKNTVYLQMNSLKPEDTAVYYCATYQAGYYQSTYDYWGPGTQVTVSS | high polyreactivity
10 | QDQLVESGGGLVQAGGSLRLSCAASGRIFGYYTAMGWYRQTPAKEREMVASITKSGGSTYYSDSVKGRFTITRDNAKNTVYLQKNCLKPEDTAVYYCAAAFNRYGTTSYWYRHYYWGQGTQVTVSS | high polyreactivity
11 | QDQLVESGGGLVQAGGSLRLSCAASGRIFKHNAMGWYRQAPGKERELVATISIAGRTNYADSVKGRFTISRDNAKNTVYLQMNSLKPEDTAVYYCAASTFFIHTYDYWGQGTQVTVSS | low polyreactivity
12 | QDQLVESGGGLVQAGGSLRLSCAASGRIFKYNAMGWYRQAPRKERELVAAITRGGSTNYADSVKGRFTISRDNAKNTVYFQLNSLKPEDTEVYYCAALRSRYGRDMDSWGQGTQVSVSS | high polyreactivity
13 | QDQLVESGGGLVQAGGSLRLSCAASGRIFRTYAMGWYRQAPRQERELVAAIRSGGSTKYADSVKGRFTISRDNAKNTVYLQMKSLKPEDTAVYYCAAAVLGRYSAGDGYWGQGTQVTVSS | low polyreactivity
14 | QDQLVESGGGLVQAGGSLRLSCAASGRIFSIYAMGWYRQAPGKERELVAAITRGGRTIYADSVKGRFTISRDNAKNTVYLQMNSLKPEDTAVYYCAARRIDGVVKPYDYWGQGTQVTVSS | low polyreactivity
15 | QDQLVESGGGLVQAGGSLRLSCAASGRIFTQNRMGWYRQAPGKERELVAVITSSGGSTYYADSVKGRFTISRDNAKNTVYLQMNSLKPEDTAVYYCAAQLVRYVGYYRFDYWGQGTQVTVSS | low polyreactivity
16 | QDQLVESGGGLVQAGGSLRLSCAASGRIFVVYAMGCYRQAPGKERELVAAITGGGRTNYADSVKGRFTISRENAKNTVYLQMKSLKPEDTAVYYCAAGTRSDARRYFYWGQGTQVTVSS | low polyreactivity
17 | QDQLVESGGGLVQAGGSLRLSCAASGRIFYLNAMGWYRQAPGKERELVAAINTSGDSTYYADSVKGRFTISRDIAKNTVYLQMNSLKQEDTAVYYCAAYVIGPDQFIYDYWGQGTQVTVSS | low polyreactivity
18 | QDQLVESGGGLVQAGGSLRLSCAASGRNFYRYVMGWYRQAPGKERELVAAITSSGGSTYYADSVKGRFTISRDNAKNTFYLQMNSLKPEDTAVYYCAADRYTRYRYYYWGKGTQVTVSS | high polyreactivity
19 | QDQLVESGGGLVQAGGSLRLSCAASGRTFDDYAMGWYRQAPGKERELVAAISSSGGSTYYADSVKGRFSISRDNAKNTVYLQMNCLKPDDTAVYYCAADYDWGYWYDYWGQGTQVTVSS | low polyreactivity
20 | QDQLVESGGGLVQAGGSLRLSCAASGRTFDLYAMGCYRQAPGKERELVAAITKGGGSTYYADSVKGRFTISRDNAKNTVYLQMNSLKPEDTAVYYCAARKYKRIYRISSGIGYYWGQGTQVTVSS | high polyreactivity
21 | QDQLVESGGGLVQAGGSLRLSCAASGRTFDRNAMGWYRQAPGKERELVARITIDGSTNYADSVKGRFTISRDNAKNTVYLQMNSLKPEDTAVYYCATDQLSLSWYFRPYDYGYWGQGTQVTVSS | high polyreactivity
22 | QDQLVESGGGLVQAGGSLRLSCAASGRTFRSYVMGWYRQAPGKERELVAAITTSGGSTYYADSVKGRFTISRDNAKNTVYLQMNSLKPEDTAVYYCAAEYYTYTGHYDSWYGDDYWGQGTQVTVSS | high polyreactivity

Row | Sequence | polyreactivity (PSR sort gate)
23 | QDQLVESGGGLVQAGGSLRLSCAASGRTFVAYAMGWSRQAPGKERELVARISSGGSTYYADSVKGRFTISRDNAKNTVYLQMNSLKPEDTAVYYCAADRGPYFVPWRRYDYWGQGTQVTVSS | low polyreactivity
24 | QDQLVESGGGLVQAGGSLRLSCAASGRTISGYVMGWYIQAPGKERELVATINGSGASTYYADSVKGRFTISRDNAKNTVYLQMNSLKPEDTAVYYCAAKRYRPKYEYYYWGQGTQVTVSS | high polyreactivity
25 | QDQLVESGGGLVQAGGSLRLSCAASGSIFAGNVMGWYRQAPGKERELVAAISRRGGRTYYADSVKGRFTISRDNAKNTVYLQMNSLKPEDTAVYYCAARRDPVLGKSDYWGQGTLVTVSS | high polyreactivity
26 | QDQLVESGGGLVQAGGSLRLSCAASGSIFGGYGMGWYRQAHGKERELVAAITSGSSTYYADSVKGRFTISRDNAKNTVYLQMNSLKPEDTAVYYCAARPYPNSAYEGDYWGRGTQVTVSS | low polyreactivity
27 | QDQLVESGGGLVQAGGSLRLSCAASGSIFKINAMGWYRQAPGKERELVATITWSTGTTYYADSVKGRFTISRDNAKNTVYLQMYSLKPEDTAVYYCATDGDSTKLDYWGQGTQVTVSS | low polyreactivity
28 | QDQLVESGGGLVQAGGSLRLSCAASGSIFPYNAMGWYRQAPGKERELVATISSGGSTNYADSVKGRFTISRDNAKNTVYLQMNSLKPEDTAVYYCAAVVIVFYYAPNYWGDIEYGYWGQGTQVTVSS | low polyreactivity
29 | QDQLVESGGGLVQAGGSLRLSCAASGSIFRKYVMGWYRQAPGKERELVAAISGSGGRTYYADSVKGRFTISRDNAKNTVYLQMNSLKPEDTAVYYSNAYPHAYTGSTREGDYWGQGTQVTVSS | high polyreactivity
30 | QDQLVESGGGLVQAGGSLRLSCAASGSIFTFNTMGWYRQAPVKERELVATISSGGRTYYADSVKGRFTISRDNAKNTVYLQMNSLKPEDTSVYYCNKGYYGYTYVEYNYWGQGTQVTVSS | low polyreactivity
31 | QDQLVESGGGLVQAGGSLRLSCAASGSIFVENAMGWYRQAPGKEREFVAAITRSGGSTYYADSVKGRFTISRDNAKNPVYLQMNSMKPEDTAVYYCAARIWDEQPAAGYYWGQGTQVTVSS | low polyreactivity
32 | QDQLVESGGGLVQAGGSLRLSCAASGSIFWLYAMGWYRQAHGKERELVASITGGGSTNYADSVKGRFTISRDNAKNTVYLQMNSLKPEDTAVYYCAKRYYRTGRKRTGLDYWGQGTQVTVSS | high polyreactivity
33 | QDQLVESGGGLVQAGGSLRLSCAASGSIFYYYAMGWYRQAPGKERELVASISRSGGSTFYADSVKGRFTISRDNAKNSVYLQMNRLKPEDTAVSYCATGWYYSPYNYWGQGTQVTVSS | high polyreactivity
34 | QDQLVESGGGLVQAGGSLRLSCAASGSIFYYYVMGWYRQETGKEREFVAAISWGGDSTYYADSVKGRFTISRDNAKNTVYLQMNSLKTEDTAVYYCKADYPWSVLAYDYWGQGTQVTVSS | low polyreactivity
35 | QDQLVESGGGLVQAGGSLRLSCAASGSISSTNAMGWYRQAPGKERELVATISWIGGSTYADSVKGRFTISRDNAKNTVYLQMNSLKPEDTAVYYCNRDWIFTKDYDYWGQGTQVTVSS | low polyreactivity
36 | QDQLVESGGGLVQAGGSLRLSCAASGSMLVNNAMGCYRQAPGKERELVAASSKSTGRTYYADSVKGRFTISRDNAKNTVYLQMNSLKPVDTAVFYCYALTHPDKFVYWGQGTQVTVSS | high polyreactivity
37 | QDQLVESGGGLVQAGGSLRLSCAASGSNFGPYAMGGYRHAPGKERELVARISGGGSTYYADSVKGRFTISRDNAKNTVYLQMNSLKPEDTAVYYCNVRNWAYWSHAIIYNYWGQGTLVTVSS | high polyreactivity
38 | QDQLVESGGGLVQAGGSLRLSCAASGSNFPTNAMGWYRPAPGKERELVADITIRGGGTSYADSVKGRFTISRDNAKNTVYLHMNSLKPEDTAFYYCARSKSTELKRLLFDSWGQGTQVTVSS | low polyreactivity
39 | QDQLVESGGGLVQAGGSLRLSCAASGSNLYRNAMGWSRQAPGKERELVAAITSRGGSTYADSVTGRFTISRDNAKNTVYLQMNSLKPEDTAVYYCAKGYLYRRPTVTHGYWGQGTQVTVSS | low polyreactivity
40 | QDQLVESGGGLVQAGGSLRLSCAASGSTFAGNGMGWYRQAPGKERELVAGIDVTGGSTYYADSVKGRFTISRDNAKNTVYLQMNSLKPEDTAVYFCNARYVYHSSFAGFDYWGQGTQVTVSS | low polyreactivity
41 | QDQLVESGGGLVQAGGSLRLSCAASGSTFAGYAMGWYRQAPGKERELVATITYSGGSTYYADSVKGRFTISRDNAKNTVYLQMNSLKPEDTAVYYCAKKASYWWGYEYWGQGTQVTVSS | low polyreactivity
42 | QDQLVESGGGLVQAGGSLRLSCAASGSTFGNYAMGWYRQAPGKERELVAAITSGGTTNYADSVKGRFTISRDNAKNTVYLQMNSLKPEDTAVYYCNAVGTFVRYSTDGRDGVTYDYWGHGTQVTVSS | low polyreactivity
43 | QDQLVESGGGLVQAGGSLRLSCAASGSTFIDNVMGWYRQPPGQERELVAAINSGGSTDYADSLKGRFTISRDNAKNTVYLLMNRLKPEDTAVYYCNAYHIVIYDYWGQGTQVTVSS | low polyreactivity
